Results: patent publication US12060408B2, “Screening assays, modulators and modulation of activation of Receptor for Advanced Glycation End-products (RAGE)” (Monash University, priority 2017, dated 2024)
Entries after “also recorded” stand apart in the source; their conditions may differ. Ends that are not written are not given here.

Experiments:
RAGE = molecular target: T1, RAGE (Mus musculus, UniProt Q62151); test: Ang II-induced ICAM-1 gene expression in murine SVEC; format: cell-based; settings: murine SVEC endogenously replete in RAGE; transfected constructs; 1 μM Ang II; FIG. 12A, 12B, 12D
T1 construct: in murine SVEC that are endogenously replete in RAGE expression; host or cells: Svec4-10 mouse endothelial cells
T1 sequence (Q62151 23-402): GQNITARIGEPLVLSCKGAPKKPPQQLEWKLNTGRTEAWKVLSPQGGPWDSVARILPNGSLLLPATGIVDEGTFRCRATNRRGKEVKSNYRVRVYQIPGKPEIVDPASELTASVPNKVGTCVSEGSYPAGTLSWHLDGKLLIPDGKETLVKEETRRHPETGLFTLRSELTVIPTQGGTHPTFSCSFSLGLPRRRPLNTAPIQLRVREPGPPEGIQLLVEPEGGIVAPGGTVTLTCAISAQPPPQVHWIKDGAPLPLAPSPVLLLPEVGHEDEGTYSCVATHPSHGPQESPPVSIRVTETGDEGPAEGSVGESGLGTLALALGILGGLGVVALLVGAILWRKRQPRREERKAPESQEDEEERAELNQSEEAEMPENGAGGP
Procedure: To explore the potential for RAGE constructs to inhibit transactivation of endogenous RAGE, additional experiments were conducted in immortalized mouse endothelial cells (Svec4-10, ATCC) cultured in 10% FBS/DMEM with 25 mM glucose were used. SVEC were transfected with truncated RAGE constructs using Lipofectamine 2000 (Invitrogen) as per manufacturer's instructions, or treated with RAGE oligopeptides (280 μM). Cells were allowed to recover in media containing 10% FBS for 16 hours prior to treatment with 1 μM Ang II.

[1] = test system: RAGE ligand-independent activation of RAGE by activated AT1R; test: Ang II-induced NFκB activation (p65 gene expression, SEAP reporter) in AT1R-CHO cells with RAGE constructs; format: cell-based, human; settings: construct expressed in AT1R-CHO cells, no wild-type RAGE
Procedure: (§1) Generation of Transgenic Chinese Hamster Ovary Cells
(§2) 100 ng of AT1R-Rluc8 construct was transfected into CHO cells using Lipofectamine 2000 (Thermo). Stable transfectants were selected using G418. AT1R—CHO were then transiently transfected with RAGE constructs using Lipofectamine 2000 (Invitrogen) and incubated for 16 h. The Homo sapiens AGER transcript variant 1 coding sequence (NM_001136) was synthesised and cloned between the NheI and XbaI sites of pCIneo (Promega) to generate the vector pCIneo-RAGE. This plasmid was then used to generate a library of mutant AGER clones (NP_001127). Primers 1-RAGE-SP-5′ and mCherry-XhoI-NotI-3′ were used to amplify the coding sequence of mCherry from the vector pmCherry-C1. The resultant PCR product was then used as template for a second PCR using primers 2-RAGE-SP-5′ and mCherry-XhoI-NotI-3′. The PCR product generated was digested with NheI and NotI and inserted between the NheI and NotI sites of pCIneo to generate pCIneo-SP-mCherry. The sequence of the insert was confirmed by DNA sequencing (Micromon, Monash University). […]
(§3) Cellular Expression of Pro-Inflammatory Markers and Mediators by Quantitative Real-Time PCR
(§4) After 2 hours of exposure to Ang II (1 μM) or the RAGE ligand, S100A8/A9 (5 ng/ml) cells were placed in Trizol, mRNA extracted and cDNA synthesized. Changes in the gene expression of the NFκB subunit, p65 (RelA) or NFκB-activated target genes (e.g ICAM-1, VCAM-1) were estimated by quantitative real-time RT-PCR, performed using the TaqMan system based on real-time detection of accumulated fluorescence (ABI Prism 7700, Perkin-Elmer Inc, PE Biosystems, Foster City, CA, USA). Gene expression was normalized to 18S mRNA and reported as fold change compared to the level of expression in untreated control mice/cells, which were given an arbitrary value of 1.
Oligopeptides (Cherry-TAT (control), mCherry-TAT-RAGE362-404 and mCherry-S391A-TAT-RAGE362-404 were generated by transformation of the Escherichia coli strain ClearColi BL21 (DE3; Lucigen). A single transformed colony was inoculated into 50 ml 2YT medium containing 100 μg/ml ampicillin and the culture was grown overnight at 37° C. with shaking at 250 rev/min. 10 ml overnight culture was used to inoculate 1 litre 2YT medium containing 100 μg/ml ampicillin and the culture was grown at 37° C. with shaking at 250 rev/min. When the cultures reached an OD600 of 0.8, the temperature was shifted to 15° C. for 30 min after which protein expression was induced by the addition of 1 mM isopropyl β-D-1-thiogalacto-pyranoside (IPTG). Following the addition of IPTG the cultures were grown for ˜16 h at 15° C. with shaking at 250 rev/min. Cells were harvested by centrifugation (3500 g, 4° C., 20 min) and resuspended in ice-cold lysis buffer (50 mM Tris pH 7.4, 300 mM NaCl, 10 mM imidazole and 5 mM beta-mercaptoethanol). The resuspended cells were sonicated and insoluble material was pelleted by centrifugation (13 000 g, 4° C., 30 min). The supernatant was filtered (0.2 μm) and applied onto a gravity-flow column with a 1 ml Ni-NTA Agarose resin bed volume (Qiagen) pre-equilibrated with lysis buffer. After the supernatant was passed over the resin, the column was washed with 100 ml of wash buffer (20 mM imidazole, 50 mM Tris pH 7.4, 150 mM NaCl, 5 mM beta-mercaptoethanol). His-tagged TAT-mCherry and TAT-mCherry-RAGE peptides were eluted from the resin using elution buffer (250 mM imidazole, 50 mM Tris pH 7.4, 150 mM NaCl, 5 mM beta-mercaptoethanol). […]

[2] = test system: primary murine aortic endothelial cells (PMAEC); test: Expression of pro-inflammatory markers by real-time RT-PCR in primary murine aortic endothelial cells; format: cell-based, mouse
Procedure: Primary aortic endothelial cells (PMAEC) were isolated from the aortae of (wild-type) C57bl6 mice and AGER KO mice and cultured in Dulbecco's modified Eagle's medium (DMEM)/F12 endothelial cell growth supplement (ECGS) supplemented media. Chinese Hamster Ovary (CHO) cells were cultured using F12 media (10% FCS with 2 mM glutamine). Human microvascular endothelial cells (HMEC) were cultured in MCDB 131 medium (10% FCS with 10 mM glutamine, EGF and hydrocortisone).
as §3, §4
Selective Silencing of Gene Expression Using siRNA
PMAEC from C57b/6 mice were also transfected with siRNA to RAGE (2 nM) Ambion, ID:s62119), p65 (RelA) (10 nM; Ambion, ID:s72857), MyD88 (10 nM; Ambion. ID:s201719), PKCζ (10 nM; Ambion, ID:s71716), IQGAP-1, Ambion, ID:s78119), Diaph1 (10 nM; sense5′-[…], antisense 3′-[…]; Invitrogen) or scrambled control #1 (2 nM or 10 nM; Ambion) using Lipofectamine RNAiMAX (Invitrogen) as per manufacturer's instructions. Cells were allowed to recover in media containing 10% FBS for 16 hours prior to treatment with 1 μM Ang II or 5 ng/ml of the RAGE ligand, S100A8/A9, as a signalling control.

[3] = test system: RAGE ligand-dependent activation of RAGE; test: S100A8/A9-induced NFκB activation (p65 gene expression) in CHO cells expressing RAGE constructs; format: cell-based, human
Procedure: as §1, §2, §3, §4
To measure the induction of NFκB activity by 1 μM Ang II, or 5 ng/ml of the RAGE-ligand S100A8/A9 as a signalling control, AT1R—CHO cells were transfected with 0.4 μg of plasmids encoding NFκB-SEAP or β-galactosidase (β-Gal) using Lipofectamine 2000 (Invitrogen) as per manufacturer's instructions. After 24 hours, cells transfected with each plasmid combination were then treated with Ang II (1 μM) or left untreated and incubated for 4 hours before cell supernatants and cell lysates were collected. Cell supernatants were analysed using a chemiluminescent SEAP reporter gene assay (Roche Applied Science) to detect SEAP production after treatment. To control for transfection efficiency, cell lysates were assayed for β-Gal using a commercially available kit (Promega).

Molecule | induction of ICAM-1 gene expression by Ang II (RAGE) | also measured
E380A-RAGE370-390: alanine mutant of RAGE370-390 (GEERKAPENQAEEEERAELNQ; cytosolic tail peptide; UniProt Q15109 370-390, looked up, variant E380A) | continue to inhibit | 
E382A-RAGE370-390: alanine mutant of RAGE370-390 (GEERKAPENQEEAEERAELNQ; cytosolic tail peptide; UniProt Q15109 370-390, looked up, variant E382A) | continue to inhibit | 
E384A-RAGE370-390: alanine mutant of RAGE370-390 (GEERKAPENQEEEEARAELNQ; cytosolic tail peptide; UniProt Q15109 370-390, looked up, variant E384A) | continue to inhibit | 
Q379A-RAGE370-390: glutamine-to-alanine mutant of RAGE370-390 (GEERKAPENAEEEEERAELNQ; cytosolic tail peptide; UniProt Q15109 370-390, looked up, variant Q379A) | lost | 
Q379K-RAGE370-390: glutamine-to-lysine mutant of RAGE370-390 (GEERKAPENKEEEEERAELNQ; cytoplasmic region peptide; UniProt Q15109 370-390, looked up, variant Q379K) | retain the greatest inhibitory effect | 
Q390A-RAGE370-390: glutamine-to-alanine mutant of RAGE370-390 (GEERKAPENQEEEEERAELNA; cytoplasmic region peptide; UniProt Q15109 370-390, looked up, variant Q390A) | lost | 
Q390K-RAGE370-390: glutamine-to-lysine mutant of RAGE370-390 (GEERKAPENQEEEEERAELNK; cytosolic tail peptide; UniProt Q15109 370-390, looked up, variant Q390K) | retain the greatest inhibitory effect | 
RAGE22-404: full length wild-type RAGE construct | does not affect | 
RAGE379-404: N-truncated RAGE construct, functional substitute of wild type RAGE (QEEEEERAELNQSEEPEAGESSTGGP; UniProt Q15109 379-404, looked up, fragment) |  | ability of the RAGE construct to be activated and mediate pro-inflammatory signalling in response to Ang II [1]: does not result in a loss of function; also recorded: able to be activated
RAGE385-404: N-truncated RAGE construct eliminating both 380 and 384 (RAELNQSEEPEAGESSTGGP; UniProt Q15109 385-404, looked up, fragment) |  | ability of the RAGE construct to be activated and mediate pro-inflammatory signalling in response to Ang II [1]: loss of the modulatory actions
S391A-RAGE22-404: full length RAGE construct with S391 mutated to alanine | able to prevent | 
TNFα |  | canonical and non-canonical signalling downstream of NFκB (CXCL2, CXCL12) ([2]; PMAEC from C57bl6 mice): selectively induce canonical signalling
m-Cherry-RAGE370-395: C-truncated S391X-RAGE mutant fused to mCherry (GEERKAPENQEEEEERAELNQSEEPE; also: mCherry fusion, not in chain; UniProt Q15109 370-395, looked up, fragment) | prevents | 
mCherry-S391A-RAGE362-404: N-truncated mCherry-RAGE cytosolic tail construct with S391A (LWQRRQRRGEERKAPENQEEEEERAELNQAEEPEAGESSTGGP; also: mCherry fusion; UniProt Q15109 362-404, looked up, fragment S391A) | able to prevent | 
soluble RAGE22-331: decoy receptor with ligand-binding affinity [reference compound] |  | inhibition of Ang II (1 μM)-induced ICAM-1, VCAM-1 and MCP-1 ([2]; PMAEC from wild type mice): do not inhibit; inhibition of S100A8/A9-induced ICAM-1 ([2]; PMAEC from wild type mice): inhibit; inhibition of S100A8/A9-induced p65 expression ([3]; AT1R-CHO cells also expressing full length RAGE): inhibit
S100A8/A9: RAGE ligand (protein) chain 1: MLTELEKALNSIIDVYHKYSLIKGNFHAVYRDDLKKLLETECPQYIRKKGADVWFKELDINTDGAVNFQEFLILVIKMGVAAHKKSHEESHKE chain 2: MTCKMSQLERNIETIINTFHQYSVKLGHPDTLNQGEFKELVRKDLQNFLKKENKNEKVIEHIMEDLDTNADKQLSFEEFIMLMARLTWASHEKMHEGDEGPGHHHKPGLGEGTP |  | induction of pro-inflammatory genes ([2]; PMAEC from AGER KO mice): does not lead to the induction; expression of pro-inflammatory genes (ICAM-1, VCAM-1, TNFα, MCP-1) ([2]; PMAEC from C57bl6 mice, Ang II 1 μM or S100A8/A9): induction; NFκB-dependent induction of VCAM-1 gene expression ([2]; PMAEC with AGER expression silenced using siRNA): preventing; activation of p65-NFκB ([3]; CHO cells expressing the RAGE polypeptide, 5 ng/ml): able to induce activation
